Consider one molecule from patent US20160002331A1.

Test in all cases: cell-based or functional assay
Assay [1] addresses Notch1 receptor with L1594P/D1610V mutations (DND-41 cells), P46531.
Assay [2] has as its target Notch1 receptor with L1594P mutation (ALL-SIL cells), P46531.
Assay [3] addresses Notch1 receptor with L1601P mutation (MOLT-4 cells), P46531.
Assay [4] has as its target Notch1 receptor with a 17 amino acid insertion at position 1740 (Jurkat cells), P46531.

Chain of Notch1 receptor with L1594P mutation (ALL-SIL cells), P46531 (P46531 19-2555, stated change not applied): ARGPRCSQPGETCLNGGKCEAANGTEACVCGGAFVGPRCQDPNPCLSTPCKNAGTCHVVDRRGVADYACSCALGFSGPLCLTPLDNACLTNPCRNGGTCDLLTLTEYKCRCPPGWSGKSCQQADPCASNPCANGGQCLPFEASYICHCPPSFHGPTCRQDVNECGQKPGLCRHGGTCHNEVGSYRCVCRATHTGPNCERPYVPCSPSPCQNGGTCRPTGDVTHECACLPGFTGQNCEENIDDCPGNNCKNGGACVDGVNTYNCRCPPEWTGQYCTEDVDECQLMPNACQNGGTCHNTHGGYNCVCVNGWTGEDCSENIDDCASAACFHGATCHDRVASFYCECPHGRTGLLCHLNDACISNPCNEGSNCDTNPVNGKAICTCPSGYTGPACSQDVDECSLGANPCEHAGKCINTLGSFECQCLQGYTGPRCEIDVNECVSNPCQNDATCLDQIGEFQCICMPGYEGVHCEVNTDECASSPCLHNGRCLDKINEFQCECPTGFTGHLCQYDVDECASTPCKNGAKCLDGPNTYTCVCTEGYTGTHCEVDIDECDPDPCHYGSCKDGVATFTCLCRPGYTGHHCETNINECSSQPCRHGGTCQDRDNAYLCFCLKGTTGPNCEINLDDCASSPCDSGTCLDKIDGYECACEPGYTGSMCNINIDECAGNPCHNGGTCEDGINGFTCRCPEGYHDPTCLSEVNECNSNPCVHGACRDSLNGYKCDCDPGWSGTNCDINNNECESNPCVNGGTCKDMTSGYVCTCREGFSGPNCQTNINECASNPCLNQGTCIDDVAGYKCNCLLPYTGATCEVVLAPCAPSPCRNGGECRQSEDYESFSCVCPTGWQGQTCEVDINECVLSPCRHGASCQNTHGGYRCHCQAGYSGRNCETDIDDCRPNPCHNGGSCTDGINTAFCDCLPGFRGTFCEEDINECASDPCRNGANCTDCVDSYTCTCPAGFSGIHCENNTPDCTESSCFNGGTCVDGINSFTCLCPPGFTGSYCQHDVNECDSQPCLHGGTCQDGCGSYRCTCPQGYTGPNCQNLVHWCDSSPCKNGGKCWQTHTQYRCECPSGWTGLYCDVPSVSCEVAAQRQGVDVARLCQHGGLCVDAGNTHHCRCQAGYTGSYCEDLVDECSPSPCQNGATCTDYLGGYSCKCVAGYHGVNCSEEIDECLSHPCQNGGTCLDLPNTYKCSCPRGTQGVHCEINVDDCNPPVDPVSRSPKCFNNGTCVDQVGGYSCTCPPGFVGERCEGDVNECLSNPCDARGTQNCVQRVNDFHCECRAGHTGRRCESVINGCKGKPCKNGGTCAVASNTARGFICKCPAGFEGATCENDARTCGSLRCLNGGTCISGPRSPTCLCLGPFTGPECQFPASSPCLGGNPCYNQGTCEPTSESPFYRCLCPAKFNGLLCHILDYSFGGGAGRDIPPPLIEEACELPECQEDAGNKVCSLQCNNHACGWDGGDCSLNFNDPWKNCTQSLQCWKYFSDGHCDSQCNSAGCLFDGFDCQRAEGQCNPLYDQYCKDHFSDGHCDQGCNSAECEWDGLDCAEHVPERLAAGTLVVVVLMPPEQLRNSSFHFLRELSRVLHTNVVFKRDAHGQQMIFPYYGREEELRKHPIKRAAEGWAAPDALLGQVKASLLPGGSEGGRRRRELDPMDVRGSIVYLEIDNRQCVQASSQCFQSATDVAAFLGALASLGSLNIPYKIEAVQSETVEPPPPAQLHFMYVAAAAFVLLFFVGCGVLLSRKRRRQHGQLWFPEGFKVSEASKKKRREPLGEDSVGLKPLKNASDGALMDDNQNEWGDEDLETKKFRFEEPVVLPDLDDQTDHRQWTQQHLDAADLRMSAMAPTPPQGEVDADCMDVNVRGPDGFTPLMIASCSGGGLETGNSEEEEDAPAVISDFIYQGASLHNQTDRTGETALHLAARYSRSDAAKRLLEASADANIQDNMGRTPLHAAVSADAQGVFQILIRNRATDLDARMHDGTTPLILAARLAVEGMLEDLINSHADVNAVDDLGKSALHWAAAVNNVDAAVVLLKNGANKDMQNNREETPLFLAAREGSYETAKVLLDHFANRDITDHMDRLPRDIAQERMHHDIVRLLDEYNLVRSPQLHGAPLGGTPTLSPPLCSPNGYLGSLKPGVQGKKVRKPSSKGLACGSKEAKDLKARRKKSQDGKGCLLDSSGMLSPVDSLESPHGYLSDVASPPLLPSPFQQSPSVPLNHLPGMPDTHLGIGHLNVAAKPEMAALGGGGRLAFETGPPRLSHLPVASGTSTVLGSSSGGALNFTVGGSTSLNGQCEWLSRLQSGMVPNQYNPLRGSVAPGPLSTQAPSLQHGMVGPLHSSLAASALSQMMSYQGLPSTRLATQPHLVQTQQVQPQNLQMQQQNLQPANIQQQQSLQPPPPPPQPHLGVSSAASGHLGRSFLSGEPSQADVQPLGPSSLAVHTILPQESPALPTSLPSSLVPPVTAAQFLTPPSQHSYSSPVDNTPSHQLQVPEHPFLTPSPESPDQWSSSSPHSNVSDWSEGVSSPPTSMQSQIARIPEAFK
Chain of Notch1 receptor with L1601P mutation (MOLT-4 cells), P46531 (P46531 19-2555, stated change not applied): as above
Chain of Notch1 receptor with a 17 amino acid insertion at position 1740 (Jurkat cells), P46531 (P46531 19-2555): as the sequence (P46531 19-2555, stated change not applied) above
Chain of Notch1 receptor with L1594P/D1610V mutations (DND-41 cells), P46531 (P46531 19-2555, stated change not applied): as above

B1: rat 351-mIgG1 (antibody, V domains shown)
VH: EVQLVESGGGLVQPGRSLKVSCLASGFTFSHYGMNWIRQAPGKGLDWVASISRSGSYIRYVDTVKGRFTVSRDIAKNTLYLQMTSLRSEDTALYYCAREGQFGDYFEYWGQGVMVTVSS
VL: DIMLTQSPATLSVTPGERISLSCRASQKISTNLHWYQQKPNESPRILIKYASQTISGIPSRFSGSGSGTDFTLHINTVEPEDFSVYYCQQTNSWPLTFGSGTKLEIK
With B1, in assay [1], the Normalized Notch1^ICD level, DND-41 cells, 0.001 µg/ml antibody (relative to untreated) came to 1.02; the Normalized Notch1^ICD level, DND-41 cells, 0.01 µg/ml antibody (relative to untreated) worked out at 0.988; the Normalized Notch1^ICD level, DND-41 cells, 0.1 µg/ml antibody (relative to untreated) came out at 0.367; the Normalized Notch1^ICD level, DND-41 cells, 1 µg/ml antibody (relative to untreated) was 0.322. The Normalized Notch1^ICD level, DND-41 cells, 10 µg/ml antibody (relative to untreated) in assay [1] amounted to 0.219. Besides, in assay [2], the Normalized Notch1^ICD level, ALL-SIL cells, 0.001 µg/ml antibody (relative to untreated) is 0.982; the Normalized Notch1^ICD level, ALL-SIL cells, 0.01 µg/ml antibody (relative to untreated) turned out to be 0.712; the Normalized Notch1^ICD level, ALL-SIL cells, 0.1 µg/ml antibody (relative to untreated) was 0.08; the Normalized Notch1^ICD level, ALL-SIL cells, 1 µg/ml antibody (relative to untreated) is 0.03. The molecule further showed a Normalized Notch1^ICD level, ALL-SIL cells, 10 µg/ml antibody (relative to untreated) in assay [2] of 0.019. In assay [3], this molecule returned a Normalized Notch1^ICD level, MOLT-4 cells, 0.01 µg/ml antibody (relative to untreated) of 1.52; a Normalized Notch1^ICD level, MOLT-4 cells, 0.1 µg/ml antibody (relative to untreated) of 0.751; a Normalized Notch1^ICD level, MOLT-4 cells, 1 µg/ml antibody (relative to untreated) of 0.284; a Normalized Notch1^ICD level, MOLT-4 cells, 10 µg/ml antibody (relative to untreated) of 0.082. Moreover, in assay [4], the Normalized Notch1^ICD level, Jurkat cells, 0.001 µg/ml antibody (relative to untreated) was found to be 1.53; the Normalized Notch1^ICD level, Jurkat cells, 0.01 µg/ml antibody (relative to untreated) was 1.44; the Normalized Notch1^ICD level, Jurkat cells, 0.1 µg/ml antibody (relative to untreated) was 1.41; the Normalized Notch1^ICD level, Jurkat cells, 1 µg/ml antibody (relative to untreated) turned out to be 1.08. This molecule yielded a Normalized Notch1^ICD level, Jurkat cells, 10 µg/ml antibody (relative to untreated) in assay [4] of 1.2.
